The target in assay [1] is 7D12-ITA-(E4K4)4-IGG-[-AA]9G8 (llama). The experiment in a line: SPR, murine EGFR-Fc. A general note: In SPR one partner is held on a chip, and binding of the other changes the refractive index at the surface.
The target in assay [2] is 7D12-(E4K4)5-VSG-[-AA]9G8. Briefly: SPR, murine EGFR-Fc.
Assay [3] addresses 7D12-FAS-(AP)11-VGG-[-AA]9G8 (llama). The experiment in a line: SPR, murine EGFR-Fc.
In assay [4] the target is 7D12-(GGGS)4-9G8 (llama). The experiment in a line: SPR (Biacore), 25 °C.
The target in the next assay is 9G8-GS-7D12 (llama). Briefly: SPR (Biacore), 25 °C.
In assay [5] the target is 7D12-(GGGS)4-9G8 (llama). The experiment in a line: SPR (Biacore), 25 °C. The source holds these as a separate data set.

Like-named read-outs stand apart in the source and are kept apart here.

Data on 1 molecule can be found in patent US20250199010A1 (ALAMAR BIOSCIENCES, published 2025).

B1: Mouse EGFR-Fc (Fc fusion, UniProt Q01279 25-647, looked up)
chain: LEEKKVCQGTSNRLTQLGTFEDHFLSLQRMYNNCEVVLGNLEITYVQRNYDLSFLKTIQEVAGYVLIALNTVERIPLENLQIIRGNALYENTYALAILSNYGTNRTGLRELPMRNLQEILIGAVRFSNNPILCNMDTIQWRDIVQNVFMSNMSMDLQSHPSSCPKCDPSCPNGSCWGGGEENCQKLTKIICAQQCSHRCRGRSPSDCCHNQCAAGCTGPRESDCLVCQKFQDEATCKDTCPPLMLYNPTTYQMDVNPEGKYSFGATCVKKCPRNYVVTDHGSCVRACGPDYYEVEEDGIRKCKKCDGPCRKVCNGIGIGEFKDTLSINATNIKHFKYCTAISGDLHILPVAFKGDSFTRTPPLDPRELEILKTVKEITGFLLIQAWPDNWTDLHAFENLEIIRGRTKQHGQFSLAVVGLNITSLGLRSLKEISDGDVIISGNRNLCYANTINWKKLFGTPNQKTKIMNNRAEKDCKAVNHVCNPLCSSEGCWGPEPRDCVSCQNVSRGRECVEKCNILEGEPREFVENSECIQCHPECLPQAMNITCTGRGPDNCIQCAHYIDGPHCVKTCPAGIMGENNTLVWKYADANNVCHLCHANCTYGCAGPGLQGCEVWPSGPKIPS
notes: also called muEGFR; murine EGFR-Fc; not shown: Fc part, not described
The Kd is the constant that tells how readily two partners part at equilibrium. As to B1, the Kd was found to be 0.7 nM in assay [1]; 2.6 nM in assay [2]; 0.6 nM in assay [3]; 160 nM with 7D12-(GGGS)4-9G8 [4]; 58 nM in the assay with 9G8-GS-7D12; 160 nM with 7D12-(GGGS)4-9G8 [5].
